Data reported in patent US11760795B2, “Monoclonal antibodies to growth and differentiation factor 15 (GDF-15), and uses thereof for treating cancer cachexia and cancer” (JULIUS-MAXIMILIANS-UNIVERSITÄT WÜRZBURG, priority 2014, dated 2023).

Columns and labels:
human Interleukin-5 = human Interleukin-5 (Homo sapiens, UniProt P05113); assay: Surface plasmon resonance control flow cell with human Interleukin-5; assay type: binding; conditions: SPR, same coupling density
[1] = molecular target: T1, human GDF-15 precursor on human cells (Homo sapiens, UniProt Q99988); assay: Staining experiments on human cells; assay type: cell-based
T1 construct: endogenous in cells
T1 sequence (Q99988 30-308 limits assumed): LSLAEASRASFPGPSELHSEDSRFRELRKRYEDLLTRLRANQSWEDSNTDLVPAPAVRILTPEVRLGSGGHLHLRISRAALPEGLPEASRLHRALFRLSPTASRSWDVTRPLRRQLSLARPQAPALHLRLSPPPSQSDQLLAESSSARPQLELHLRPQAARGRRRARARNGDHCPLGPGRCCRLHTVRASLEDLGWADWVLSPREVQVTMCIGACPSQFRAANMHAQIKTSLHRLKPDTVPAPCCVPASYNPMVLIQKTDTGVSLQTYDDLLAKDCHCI

[2] = Gel electrophoresis and coomassie staining of antibodies used in study No. 140123; assay type: physicochemical
Description: FIG. 6: Coomassie stain of antibodies used in the study No. 140123.
The quality of the humanized anti-GDF-15 antibody B1-23-H1L5 used in the study was tested by using gel electrophoresis and coomassie staining of the antibodies (see FIG. 6).

[3] = system: GDF-15 mediated AKT-phosphorylation in ovarian cancer cell line SK-OV-3; assay: Akt phosphorylation in SK-OV-3 cells (Western Blot); assay type: cell-based; conditions: 2 μg antibody preincubated 5 minutes with 10 ng/ml GDF-15 at 37° C.
Description: FIG. 2: Akt Phosphorylation in the Ovarian Carcinoma Cell Line SK-OV-3. In order to quantify the Western Blot for the ovarian carcinoma cell line SK-OV-3, the ratio of phosphorylated Akt to the total amount of Akt was calculated and normalized to the untreated control.
b) The treatment of the ovarian cancer cell line SK-OV-3 with recombinant GDF-15 led to the phosphorylation of AKT. AKT is a molecule, which is part of the PI3K-pathway and contributes to the activation and proliferation of cells. In this experiment SK-OV-3 cells were treated with 10 ng/ml recombinant GDF-15 for 10 min at 37° C., 5% CO2. 5 minutes preincubation of 2 μg mAb-B1-23 with 10 ng/ml GDF-15 at 37° C. blocked the GDF-15 mediated AKT-phosphorylation (FIG. 2).

cancer cells = assay: Cytotoxic effects of the antibody (different assays); assay type: cell-based
From the text: The strongest antiproliferative effect was observed using the prostate cancer cell line LnCap, which produces lots of GDF-15.

[4] = Study No. 140123: body weight of UACC-257 inoculated mice (cancer-induced weight loss); assay type: in vivo, Balb/c^nu/nu mice; conditions: 38 days
Description: FIG. 5: Treatment of cancer cachexia with anti-GDF-15 antibodies. […] The changes of the body weight are depicted in percent as compared to the starting body weight on day 0, for a period of 38 days.
Treatment of cancer-induced weight loss with anti-GDF-15 antibodies. In the underlying animal study No. 140123, 10 Balb/c^nu/nu mice per treatment group were subcutaneously inoculated with 10×10^6 UACC-257 cells per animal in a 1:1 volume ratio with matrigel (100 μl cells+100 μl matrigel). The animals were treated on the same day with the respective antibodies, as indicated below:
The study was carried out in a double-blinded manner for the treatment with the antibodies and for the treatment with PBS.

[5] = Aggregation study: shaking 48 hours at room temperature, visual analysis for precipitates; assay type: physicochemical; conditions: PBS, no stabilizing proteins for H1L5
Description: In order to test the aggregation properties of anti-GDF-15 antibodies, antibody samples were shaken for 48 hours at room temperature in microcentrifuge tubes, and subsequently, the tubes were visually analyzed for aggregated antibody precipitates.

hrGDF-15 = molecular target: T2, hrGDF-15 (Homo sapiens, UniProt Q99988); assay: Colorimetric ELISA binding to coated hrGDF-15; conditions: serial 1:3 dilution from 333 ng/ml; in comparison to B12
T2 sequence (Q99988 with tags, fused parts or gaps limits assumed): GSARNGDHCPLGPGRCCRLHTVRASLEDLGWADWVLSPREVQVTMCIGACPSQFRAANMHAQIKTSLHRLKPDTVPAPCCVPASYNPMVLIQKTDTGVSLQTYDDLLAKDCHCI
Description: Additionally, by using a colorimetric assay, it was confirmed that all anti-GDF-15 antibodies used in the study bound to GDF-15 in a concentration-dependent manner. To determine the binding of B1-23 antibody variants to GDF-15, a […] ELISA experiment was performed. […] Therefore, Maxisorp 96 well plates (Nunc) were coated with hrGDF-15 (25 ng protein per well, 50 μl volume) over night at 4° C. The following day, plates were washed to remove unbound protein (3 times with 150 μl of PBS 0.05% Tween®) and non-specific binding sites were blocked with 150 μl of PBS 1% BSA for 2 hours at room temperature. Again, plates were washed and different variants of B1-23 test antibodies were applied (50 μl volume). To inquire specificity of the antibody binding, endpoint dilution was performed starting from 333 ng/ml and 1:3 serial dilution. As background control, PBS 1% BSA was applied. Following binding for 1 hour at room temperature, wells were washed as described above. As secondary antibody HRP conjugated Anti-human IgG (Life technologies, 1:5000) was applied for 1 hour at room temperature. Wells were washed as described above to remove unbound secondary antibody. […] For analysis, optical density at 450 nm was quantified using the ELISA reader (Tecan Sunrise) and the corresponding Magellan software.

human Interleukin-5, sequence (P05113 20-134): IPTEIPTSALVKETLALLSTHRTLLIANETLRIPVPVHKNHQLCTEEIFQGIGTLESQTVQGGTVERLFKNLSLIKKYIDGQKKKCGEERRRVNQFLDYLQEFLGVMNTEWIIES

B1: mAb-B1-23: murine IgG2a (kappa) monoclonal anti-human GDF-15 antibody produced by hybridoma cell line B1-23, DSM ACC3142 (antibody, V domains shown)
VH: QVKLQQSGPGILQSSQTLSLTCSFSGFSLSTSGMGVSWIRQPSGKGLEWLAHIYWDDDKRYNPTLKSRLTISKDPSRNQVFLKITSVDTADTATYYCARSSYGAMDYWGQGTSVTVSS
VL: DIVLTQSPKFMSTSVGDRVSVTCKASQNVGTNVAWFLQKPGQSPKALIYSASYRYSGVPDRFTGSGSGTDFTLTISNVQSEDLAEYFCQQYNNFPYTFGGGTKLEIKRTVA
In the case of B1, the “binding to human interleukin-5” value (human Interleukin-5) is reported as “no binding”, the “binding to the human GDF-15 precursor on human cells” value [1] is reported as “capable of binding” and the “band appearance / aggregation in coomassie gel” value [2] is reported as “less sharp and at a higher molecular weight”. The “GDF-15 mediated AKT-phosphorylation” value [3] was “blocked”, the “cytotoxic effects of the antibody” value (cancer cells) was “excluded” and the “body weight change compared to day 0” value [4] was “increase in body weight”. For the same molecule, the tendency to aggregate [5] was “can form aggregates” and the “binding to GDF-15 in ELISA” value (hrGDF-15) was “clearly concentration-dependent binding”.
